Measurements from patent US20250066499A1 (SUNSHINE GUOJIAN PHARMACEUTICAL SHANGHAI, published 2025).
Positions count from the first letter of the chain named.

How the values were obtained:
CD73-ND-his = target: T1, CD73-ND-his (human, UniProt P21589 27-317); assay: ELISA, biotinylated antigen on streptavidin plate
T1 construct: Biotinylated and captured on streptavidin in the ELISA
T1 sequence: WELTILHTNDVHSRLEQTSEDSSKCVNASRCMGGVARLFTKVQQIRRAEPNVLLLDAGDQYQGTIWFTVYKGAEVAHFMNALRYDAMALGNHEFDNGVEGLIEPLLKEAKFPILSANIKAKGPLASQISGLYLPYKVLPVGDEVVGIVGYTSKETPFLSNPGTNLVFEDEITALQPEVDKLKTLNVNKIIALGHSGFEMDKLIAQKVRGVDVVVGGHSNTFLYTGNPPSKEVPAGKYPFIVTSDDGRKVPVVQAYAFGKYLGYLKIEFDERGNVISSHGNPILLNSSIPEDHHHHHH
Description: (§1) The ELISA plates were coated with SA protein diluted to 1.5 μg/mL in coating buffer (50 mM carbonate coating buffer, pH 9.6) and incubated overnight at 4° C. The supernatant was discarded, and the plates were washed three times with PBST. Then, 5% skimmed milk powder prepared with PBS was added for blocking and the plates were incubated for 2 h at 37° C. After washing the plates once with PBST, CD73-biotin protein (prepared by biotinylating CD73-His protein according to the EZ-Link NHS-Biotin Reagent instructions) was diluted to 0.5 μg/mL and added at 100 μL/well for incubation at room temperature for 1 h. The plates were washed three times with PBST, and the prepared murine-derived monoclonal antibodies against human CD73 were serially diluted with 1% BSA buffer prepared with PBST and added to the ELISA plates at 100 μl/well. The plates were incubated at 37° C. for 1 h. After washing the plates three times with PBST, HRP-labeled goat anti-mouse IgG secondary antibody was added and the plates were incubated for 30 min at 37° C. After washing the plates three times with PBST, the residual droplets were patted dry on absorbent paper as much as possible. Then, 100 μl of TMB color developing solution was added to each well, and the plates were incubated in the dark at room temperature for 5 min for color development. Subsequently, 50 μl of 2M H₂SO₄ stop solution was added to each well to terminate the substrate reaction. The OD values were read at 450 nm using a multimode microplate reader to analyze the binding ability of the tested antibodies to the target antigen human CD73-His.
(§2) Referring to the experimental method in Example 3, the affinity of 48A11-HuV33 for various mutant proteins of CD73-ND was determined. The SA protein was diluted to 1 μg/mL for coating the ELISA plates, and the biotinylated CD73 protein (CD73-biotin) was used at a concentration of 0.1 μg/mL.

CD73-ND-V186A = target: T2, CD73-ND-V186A (human, UniProt P21589 27-317); assay: ELISA, biotinylated antigen on streptavidin plate
T2 construct: Alanine mutant of CD73-ND
T2 sequence: T1 sequence with V186A
Description: as §1, §2

CD73-ND-N187A = target: T3, CD73-ND-N187A (human, UniProt P21589 27-317); assay: ELISA, biotinylated antigen on streptavidin plate
T3 construct: Alanine mutant of CD73-ND
T3 sequence: T1 sequence with N187A
Description: as §1, §2

CD73-ND-N185A = target: T4, CD73-ND-N185A (human, UniProt P21589 27-317); assay: ELISA, high plateau value (OD 450 nm)
T4 construct: Alanine mutant of CD73-ND
T4 sequence: T1 sequence with N185A
Description: as §1, §2

CD73-ND-P139A = target: T5, CD73-ND-P139A (human, UniProt P21589 27-317); assay: ELISA, high plateau value (OD 450 nm)
T5 construct: Alanine mutant of CD73-ND
T5 sequence: T1 sequence with P139A
Description: as §1, §2

CD73-ND-V140A = target: T6, CD73-ND-V140A (human, UniProt P21589 27-317); assay: ELISA, high plateau value (OD 450 nm)
T6 construct: Alanine mutant of CD73-ND
T6 sequence: T1 sequence with V140A
Description: as §1, §2

B1: 48A11-HuV33 (antibody, human IgG4, V domains shown)
VH: QVQLVQSGAEVKKPGASVKVSCKASGYTFTSYWMHWVRQAPGQGLEWIGEINPSIGRTNYNEKFKSRVTLTRDTSTSTAYMELSSLRSEDTAVYYCARRVYGTMDYWGQGTLVTVSS
VL: DIQMTQSPSSLSASVGDRVTITCKASQDINSYLSWFQQKPGKSPKLLIYRANIWVDGVPSRFSGSGSGQDYTFTISSLQPEDIATYYCLQYDELYTFGQGTKVEIK
notes: Humanized
EC50 (CD73-ND-his): 0.091 nM
EC50 (CD73-ND-V186A): 0.16 nM
EC50 (CD73-ND-N187A): 0.105 nM
Top (CD73-ND-N185A): 1.9
Top (CD73-ND-P139A): 0.871
Top (CD73-ND-V140A): 2.05
